Results from PMC6555819, “Comprehensive study of nuclear receptor DNA binding provides a revised framework for understanding receptor specificity”.
Substitutions are numbered along the chain they refer to.

B1: NRC3_wobSeed141_DR5_G16C_o1 (dsDNA)
DNA 1: GCAGTCAAAGTTCAGCACGAGGTAACGTAAAGCACGGCGATTGACAGCGTAGAATGAAGG
DNA 2: CCTTCATTCTACGCTGTCAATCGCCGTGCTTTACGTTACCTCGTGCTGAACTTTGACTGC
B2: NRC3_wobSeed31_DR1_A15T_o1 (dsDNA)
DNA 1: GCTCATATAGGTAATAGGTGAAAGTCGGTGTGGTAAGCGATTGACAGCGTAGAATGAAGG
DNA 2: CCTTCATTCTACGCTGTCAATCGCTTACCACACCGACTTTCACCTATTACCTATATGAGC
B3: NRC3_wobSeed136_DR5_A30G_o1 (dsDNA)
DNA 1: GCTAGCCTAGGTCATTCAGGGGCCAGTATGGAAAGCGCGATTGACAGCGTAGAATGAAGG
DNA 2: CCTTCATTCTACGCTGTCAATCGCGCTTTCCATACTGGCCCCTGAATGACCTAGGCTAGC
B4: NRC3_wobSeed136_DR5_C24T_o1 (dsDNA)
DNA 1: B3 DNA 1 with C24T, G30A
DNA 2: B3 DNA 2 with C31T, G37A
B5: NRC3_wobSeed36_DR1_G9T_o1 (dsDNA)
DNA 1: GCCCGACTTGGGCAAAGGTTACCATACTCAGTACGAGCGATTGACAGCGTAGAATGAAGG
DNA 2: CCTTCATTCTACGCTGTCAATCGCTCGTACTGAGTATGGTAACCTTTGCCCAAGTCGGGC
B6: NRC3_wobSeed116_DR4_A18G_o1 (dsDNA)
DNA 1: GCAGAATGAGGTTACCAGAGATCAGGGAAACGCTTGGCGATTGACAGCGTAGAATGAAGG
DNA 2: CCTTCATTCTACGCTGTCAATCGCCAAGCGTTTCCCTGATCTCTGGTAACCTCATTCTGC
B7: NRC3_wobSeed116_DR4_C15A_o1 (dsDNA)
DNA 1: B6 DNA 1 with C15A, G18A
DNA 2: B6 DNA 2 with C43T, G46T
B8: NRC3_wobSeed134_DR5_A30G_o1 (dsDNA)
DNA 1: GCGCTGCTAGGTCAACTGATGGTCAGCTAGAGCTCGGCGATTGACAGCGTAGAATGAAGG
DNA 2: CCTTCATTCTACGCTGTCAATCGCCGAGCTCTAGCTGACCATCAGTTGACCTAGCAGCGC
B9: NRC3_wobSeed124_DR5_C17G_o1 (dsDNA)
DNA 1: GCCCTACTGGGCCATTGAGAGGTCATTGATCATATGGCGATTGACAGCGTAGAATGAAGG
DNA 2: CCTTCATTCTACGCTGTCAATCGCCATATGATCAATGACCTCTCAATGGCCCAGTAGGGC
B10: NRC3_wobSeed69_DR2_C15G_o1 (dsDNA)
DNA 1: GCAGTCAAAGTTCAGTAGGTAACGTAAGATTCAGCTGCGATTGACAGCGTAGAATGAAGG
DNA 2: CCTTCATTCTACGCTGTCAATCGCAGCTGAATCTTACGTTACCTACTGAACTTTGACTGC
B11: NRC3_wobSeed43_DR1_G26C_o1 (dsDNA)
DNA 1: GCCCAGACAGGTGAAAGGTAACTCACTCTGGTACGCGCGATTGACAGCGTAGAATGAAGG
DNA 2: CCTTCATTCTACGCTGTCAATCGCGCGTACCAGAGTGAGTTACCTTTCACCTGTCTGGGC
B12: NRC3_wobSeed98_DR4_A28T_o1 (dsDNA)
DNA 1: GCACTAGTTGGTCAGCTGAGGTCACACTCAATTCGGGCGATTGACAGCGTAGAATGAAGG
DNA 2: CCTTCATTCTACGCTGTCAATCGCCCGAATTGAGTGTGACCTCAGCTGACCAACTAGTGC
B13: NRC3_wobSeed14_DR0_C22G_o1 (dsDNA)
DNA 1: GCCCTGCTAGGTCATGGTCAGGTAATCTACAGTATGGCGATTGACAGCGTAGAATGAAGG
DNA 2: CCTTCATTCTACGCTGTCAATCGCCATACTGTAGATTACCTGACCATGACCTAGCAGGGC
B14: NRC3_wobSeed140_DR5_T15C_o1 (dsDNA)
DNA 1: GCAGAATGAGGTTACACGTAGATCAGGGAAGAAAGTGCGATTGACAGCGTAGAATGAAGG
DNA 2: CCTTCATTCTACGCTGTCAATCGCACTTTCTTCCCTGATCTACGTGTAACCTCATTCTGC
B15: NRC3_wobSeed72_DR2_A22G_o1 (dsDNA)
DNA 1: GCTCGAGTAGGTTACGGGGGCGTTCAGGGATGAAGAGCGATTGACAGCGTAGAATGAAGG
DNA 2: CCTTCATTCTACGCTGTCAATCGCTCTTCATCCCTGAACGCCCCCGTAACCTACTCGAGC
B16: NRC3_wobSeed75_DR3_G24A_o1 (dsDNA)
DNA 1: GCTCTCGGAGGACACGAAGGTCAAAGCTTTCCAGAGGCGATTGACAGCGTAGAATGAAGG
DNA 2: CCTTCATTCTACGCTGTCAATCGCCTCTGGAAAGCTTTGACCTTCGTGTCCTCCGAGAGC
B17: NRC3_wobSeed26_DR1_A21T_o1 (dsDNA)
DNA 1: GCTCTAGTTGGTCAAAGGTCTCACACTCGAAATGCGGCGATTGACAGCGTAGAATGAAGG
DNA 2: CCTTCATTCTACGCTGTCAATCGCCGCATTTCGAGTGTGAGACCTTTGACCAACTAGAGC
B18: NRC3_wobSeed20_DR0_C19T_o1 (dsDNA)
DNA 1: GCAGAATGAGGTTAAGATTAGGGAAACAGAATACATGCGATTGACAGCGTAGAATGAAGG
DNA 2: CCTTCATTCTACGCTGTCAATCGCATGTATTCTGTTTCCCTAATCTTAACCTCATTCTGC
B19: NRC3_wobSeed64_DR2_G18T_o1 (dsDNA)
DNA 1: GCTAGCCTAGGTCATTGTGCCAGTATAGTACGCATCGCGATTGACAGCGTAGAATGAAGG
DNA 2: CCTTCATTCTACGCTGTCAATCGCGATGCGTACTATACTGGCACAATGACCTAGGCTAGC
B20: NRC3_wobSeed14_DR0_T5C_o1 (dsDNA)
DNA 1: B13 DNA 1 with T5C, G22C
DNA 2: B13 DNA 2 with C39G, A56G
B21: NRC3_wobSeed137_DR5_A25T_o1 (dsDNA)
DNA 1: GCATATGTAGGTTACATCCGGGTCTTTCAGGCTATGGCGATTGACAGCGTAGAATGAAGG
DNA 2: CCTTCATTCTACGCTGTCAATCGCCATAGCCTGAAAGACCCGGATGTAACCTACATATGC
B22: NRC3_wobSeed141_DR5_C26T_o1 (dsDNA)
DNA 1: B1 DNA 1 with C16G, C26T
DNA 2: B1 DNA 2 with G35A, G45C
B23: NRC3_wobSeed116_DR4_A6T_o1 (dsDNA)
DNA 1: B6 DNA 1 with A6T, G18A
DNA 2: B6 DNA 2 with C43T, T55A
B24: NRC3_wobSeed54_DR2_G15T_o1 (dsDNA)
DNA 1: GCTCTAGCAGGCCATAGGGTCACTCAAGAGGTACGGGCGATTGACAGCGTAGAATGAAGG
DNA 2: CCTTCATTCTACGCTGTCAATCGCCCGTACCTCTTGAGTGACCCTATGGCCTGCTAGAGC
B25: NRC3_wobSeed47_DR1_A5T_o1 (dsDNA)
DNA 1: GCGGTACGAGGGCAAAGTTGATAGCATCTGTCGACGGCGATTGACAGCGTAGAATGAAGG
DNA 2: CCTTCATTCTACGCTGTCAATCGCCGTCGACAGATGCTATCAACTTTGCCCTCGTACCGC

Biological target: PPARa:RXRa (Homo sapiens, UniProt Q07869;P19793 full;full)
Assay: no ligand; PBM; 270 nM : 90 nM RXRa; PBS pH 7.4, 2% milk, 0.02% Triton X-100, 1 mM DTT, BSA, 0.4 mg/ml salmon testes DNA
Conditions: tags: GST kept;His cleaved; copies: 1;1; label: surface-attached array probe
How it was run: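 Custom Agilent 4×180K protein-binding microarrays carried double-stranded probes. Their 34-nt variable regions held direct-repeat seeds, single-nucleotide variants, half-site ablations and random human genomic background sequences. Arrays were incubated 1 h with ligand-free nuclear receptor dimers in PBS pH 7.4, 2% milk, 0.02% Triton X-100, 1 mM DTT, 0.2 mg/mL BSA and 0.4 mg/ml salmon testes DNA. Antibodies against each partner (one per run) detected binding, and scanned fluorescence was regression-normalized. Binding z-scores use random background probes as reference.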

Chain of PPARa:RXRa (Q07869 whole entry, chain 1 of 2): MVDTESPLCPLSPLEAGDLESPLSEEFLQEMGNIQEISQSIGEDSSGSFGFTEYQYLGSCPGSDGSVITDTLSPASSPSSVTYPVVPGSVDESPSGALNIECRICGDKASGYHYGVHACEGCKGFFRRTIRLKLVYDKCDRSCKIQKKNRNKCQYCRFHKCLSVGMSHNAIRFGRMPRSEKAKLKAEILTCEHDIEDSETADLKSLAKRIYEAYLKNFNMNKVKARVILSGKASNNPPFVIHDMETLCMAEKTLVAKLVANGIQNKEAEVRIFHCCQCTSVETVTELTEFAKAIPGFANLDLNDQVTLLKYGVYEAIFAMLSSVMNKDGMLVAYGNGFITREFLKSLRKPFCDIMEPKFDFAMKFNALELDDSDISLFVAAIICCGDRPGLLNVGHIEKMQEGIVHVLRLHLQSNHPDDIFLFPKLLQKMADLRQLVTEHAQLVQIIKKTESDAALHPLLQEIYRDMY
Chain of PPARa:RXRa (P19793 whole entry, chain 2 of 2): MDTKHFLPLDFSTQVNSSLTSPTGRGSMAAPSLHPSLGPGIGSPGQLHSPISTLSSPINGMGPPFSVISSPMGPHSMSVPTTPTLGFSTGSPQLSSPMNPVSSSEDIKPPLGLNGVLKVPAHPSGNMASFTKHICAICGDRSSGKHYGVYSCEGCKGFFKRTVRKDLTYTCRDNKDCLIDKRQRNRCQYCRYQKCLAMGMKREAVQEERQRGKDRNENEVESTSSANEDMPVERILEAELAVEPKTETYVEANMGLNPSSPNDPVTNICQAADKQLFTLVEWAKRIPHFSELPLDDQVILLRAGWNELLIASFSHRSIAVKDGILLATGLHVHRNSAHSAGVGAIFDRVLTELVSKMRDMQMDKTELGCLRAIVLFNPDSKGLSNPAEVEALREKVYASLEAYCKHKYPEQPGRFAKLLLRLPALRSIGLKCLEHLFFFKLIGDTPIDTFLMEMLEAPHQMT

| Binder | binding signal |
| --- | --- |
| B1 | 3.7 PBM z-score against 500 random probes |
| B2 | 3.69 PBM z-score against 500 random probes |
| B3 | 3.67 PBM z-score against 500 random probes |
| B4 | 3.65 PBM z-score against 500 random probes |
| B5 | 3.64 PBM z-score against 500 random probes |
| B6 | 3.63 PBM z-score against 500 random probes |
| B7 | 3.61 PBM z-score against 500 random probes |
| B8 | 3.59 PBM z-score against 500 random probes |
| B9 | 3.57 PBM z-score against 500 random probes |
| B10 | 3.56 PBM z-score against 500 random probes |
| B11 | 3.54 PBM z-score against 500 random probes |
| B12 | 3.53 PBM z-score against 500 random probes |
| B13 | 3.51 PBM z-score against 500 random probes |
| B14 | 3.5 PBM z-score against 500 random probes |
| B15 | 3.48 PBM z-score against 500 random probes |
| B16 | 3.46 PBM z-score against 500 random probes |
| B17 | 3.41 PBM z-score against 500 random probes |
| B18 | 3.39 PBM z-score against 500 random probes |
| B19 | 3.37 PBM z-score against 500 random probes |
| B20 | 3.35 PBM z-score against 500 random probes |
| B21 | 3.32 PBM z-score against 500 random probes |
| B22 | 3.3 PBM z-score against 500 random probes |
| B23 | 3.29 PBM z-score against 500 random probes |
| B24 | 3.24 PBM z-score against 500 random probes |
| B25 | 3.22 PBM z-score against 500 random probes |
